Experimental data published in patent US20150011462A1 (Novo Nordisk, published 2015).
Numbered stars: 1 amine (or outer) side, 2 acyl side, 3 side chain; on linkers, the order of the positions; unused ones are H or OH. Square brackets hold non-standard residues; d marks the D form. Side chains are listed from the residue outwards. Ends that are not written are not given here. * marks the point of attachment. TtdSuc = 4-[3-[2-[2-(3-aminopropoxy)ethoxy]ethoxy]propylamino]-4-oxobutanoyl; C20 diacid = O=C(O)CCCCCCCCCCCCCCCCCCC(=O)*; C19 diacid = O=C(O)CCCCCCCCCCCCCCCCCC(=O)*; γGlu = O=C(O)[C@H](CCC(=O)[*:2])N[*:1]; Desaminohistidyl = O=C(CCc1c[nH]cn1)*; εLys = N[C@@H](CCCCN[*:1])C(=O)[*:2]; Trx = NC[C@H]1CC[C@H](C(=O)O)CC1; AEEA = NCCOCCOCC(=O)O; Aib = CC(C)(N)C(=O)O; Inp = O=C(O)C1CCNCC1

B1: N{Epsilon-36}-[2-[2-[2-[[2-[2-[2-[[(4S)-4-carboxy-4-[[4-[(19-carboxynonadecanoylamino)methyl]cyclohexanecarbonyl]amino]butanoyl]amino]ethoxy]ethoxy]acetyl]amino … (peptide)
peptide: H[Aib]EGTFTSDVSSYLEEQAAREFIAWLVRGK([AEEA-AEEA-γGlu-Trx-C20 diacid])GPASEK([AEEA-AEEA-γGlu-Trx-C20 diacid])
notes: Double-acylated, C-terminally extended GLP-1 analogue made by SPPS; also called 15
B2: N{Alpha}([Aib8,Glu22,Arg26,Arg34]-GLP-1-(7-37)-peptidyl)-N{Epsilon}[2-[2-[2-[[2-[2-[2-[[2-[2-[2-[[2-[2-[2-[[(4S)-4-carboxy-4-[[4-[(19-carboxynonadecanoylamino)m … (peptide)
peptide: H[Aib]EGTFTSDVSSYLEEQAAREFIAWLVRGRGK([AEEA-AEEA-AEEA-AEEA-γGlu-Trx-C20 diacid])GGSK([AEEA-AEEA-AEEA-AEEA-γGlu-Trx-C20 diacid])
notes: Double-acylated, C-terminally extended GLP-1 analogue made by SPPS; also called 17
B3: N{Alpha}([Imp … (peptide)
peptide: [Desaminohistidyl][Aib]EGTFTSDVSSYLEEQAAREFIAWLVRGRGK([AEEA-AEEA-AEEA-AEEA-γGlu-Trx-C20 diacid])GGSK([AEEA-AEEA-AEEA-AEEA-γGlu-Trx-C20 diacid])
notes: Double-acylated, C-terminally extended GLP-1 analogue made by SPPS; also called 18
B4: N{Alpha}([Aib8,Glu22,Arg26,Arg34]-GLP-1-(7-37)-peptidyl)-N{Epsilon}[2-[2-[2-[[2-[2-[2-[[2-[2-[2-[[2-[2-[2-[[(4S)-4-carboxy-4-(19-carboxynonadecanoylamino)butano … (peptide)
peptide: H[Aib]EGTFTSDVSSYLEEQAAREFIAWLVRGRGK([AEEA-AEEA-AEEA-AEEA-γGlu-C20 diacid])GGSK([AEEA-AEEA-AEEA-AEEA-γGlu-C20 diacid])
notes: Double-acylated, C-terminally extended GLP-1 analogue made by SPPS; also called 19
B5: N{Alpha}([Imp … (peptide)
peptide: [Desaminohistidyl][Aib]EGTFTSDVSSYLEEQAAREFIAWLVRGRGK([AEEA-AEEA-AEEA-AEEA-γGlu-C20 diacid])GGSK([AEEA-AEEA-AEEA-AEEA-γGlu-C20 diacid])
notes: Double-acylated, C-terminally extended GLP-1 analogue made by SPPS; also called 20
B6: N{Alpha}([Aib8,Glu22,Arg26,Arg34]-GLP-1-(7-37)-peptidyl)-N{Epsilon}[4-[3-[2-[2-[3-[[(4S)-4-carboxy-4-[[1-(19-carboxynonadecanoyl)piperidine-4-carbonyl]amino]but … (peptide)
peptide: H[Aib]EGTFTSDVSSYLEEQAAREFIAWLVRGRGK([TtdSuc-γGlu-Inp-C20 diacid])GGSK([TtdSuc-γGlu-Inp-C20 diacid])
notes: Double-acylated, C-terminally extended GLP-1 analogue made by SPPS; also called 21
B7: N{Alpha}([AAib8,Glu22,Arg26,Arg34]-GLP-1-(7-37)-peptidyl)-N{Epsilon}[2-[2-[3-[2-[2-[3-[[(4S)-4-carboxy-4-(19-carboxynonadecanoylamino)butanoyl]amino]propoxy]eth … (peptide)
peptide: HXEGTFTSDVSSYLEEQAAREFIAWLVRGRGKGGSK
modifications: Aib at position 8; N-epsilon of Lys38 and of Lys42 each acylated with C20 diacid (19-carboxynonadecanoyl)-gGlu-TotaGlyc (GLP-1(7-37) numbering = sequence-listing position + 6)
notes: Double-acylated, C-terminally extended GLP-1 analogue made by SPPS; The printed name has 'AAib8' (typographic slip for Aib8); also called 22
B8: N{Alpha}([Aib8,Glu22,Arg26,Arg34]-GLP-1-(7-37)-peptidyl)-N{Epsilon}[4-[2-[2-[2-[[(4S)-4-carboxy-4-[[4-[(19-carboxynonadecanoylamino)methyl]cyclohexanecarbonyl]a … (peptide)
peptide: B7 peptide
modifications: Aib at position 8; N-epsilon of Lys38 and of Lys42 each acylated with C20 diacid (19-carboxynonadecanoyl)-Trx-gGlu-DooaSuc (GLP-1(7-37) numbering = sequence-listing position + 6)
notes: Double-acylated, C-terminally extended GLP-1 analogue made by SPPS; also called 23
B9: N{Alpha}([Aib8,Glu22,Arg26,Arg34]-GLP-1-(7-37)-peptidyl)-N{Epsilon}[2-[2-[2-[[2-[2-[2-[[2-[2-[2-[[2-[2-[2-[[2-[2-[2-[[2-[2-[2-[[(4S)-4-carboxy-4-[[4-[(19-carbox … (peptide)
peptide: H[Aib]EGTFTSDVSSYLEEQAAREFIAWLVRGRGK([AEEA-AEEA-AEEA-AEEA-AEEA-AEEA-γGlu-Trx-C20 diacid])GGSK([AEEA-AEEA-AEEA-AEEA-AEEA-AEEA-γGlu-Trx-C20 diacid])
notes: Double-acylated, C-terminally extended GLP-1 analogue made by SPPS; also called 24
B10: N{Alpha}([Aib8,Glu22,Arg26,Arg34]-GLP-1-(7-37)-peptidyl)-N{Epsilon}[2-[2-[2-[[2-[2-[2-[[2-[2-[2-[[2-[2-[2-[[(2S)-2-amino-6-[[(2S)-2-amino-6-(19-carboxynonadecan … (peptide)
peptide: H[Aib]EGTFTSDVSSYLEEQAAREFIAWLVRGRGK([AEEA-AEEA-AEEA-AEEA-εLys-εLys-C20 diacid])GGSK([AEEA-AEEA-AEEA-AEEA-εLys-εLys-C20 diacid])
notes: Double-acylated, C-terminally extended GLP-1 analogue made by SPPS; also called 25
B11: N{Alpha}([Aib8,Glu22,Arg26,Arg34]-GLP-1-(7-37)-peptidyl)-N{Epsilon}[2-[2-[2-[[2-[2-[2-[[(4S)-4-carboxy-4-[[4-[(18-carboxyoctadecanoylamino)methyl]cyclohexanecar … (peptide)
peptide: H[Aib]EGTFTSDVSSYLEEQAAREFIAWLVRGRGK([AEEA-AEEA-γGlu-Trx-C19 diacid])GGSK([AEEA-AEEA-γGlu-Trx-C19 diacid])
notes: Double-acylated, C-terminally extended GLP-1 analogue made by SPPS; also called 26
B12: N{Alpha}([Aib8,Glu22,Arg26,Arg34]-GLP-1-(7-37)-peptidyl)-N{Epsilon}[2-[2-[2-[[2-[2-[2-[[2-[2-[2-[[2-[2-[2-[[2-[2-[2-[[(2S)-2-amino-6-[[(2S)-2-amino-6-(19-carbox … (peptide)
peptide: H[Aib]EGTFTSDVSSYLEEQAAREFIAWLVRGRGK([AEEA-AEEA-AEEA-AEEA-AEEA-εLys-εLys-C20 diacid])GGSK([AEEA-AEEA-AEEA-AEEA-AEEA-εLys-εLys-C20 diacid])
notes: Double-acylated, C-terminally extended GLP-1 analogue made by SPPS; also called 27
B13: N{Alpha}([Aib8,Glu22,Arg26,Arg34]-GLP-1-(7-37)-peptidyl)-N{Epsilon}[2-[2-[2-[[2-[2-[2-[[2-[2-[2-[[2-[2-[2-[[2-[2-[2-[[2-[2-[2-[[(2S)-2-amino-6-[[(2S)-2-amino-6- … (peptide)
peptide: H[Aib]EGTFTSDVSSYLEEQAAREFIAWLVRGRGK([AEEA-AEEA-AEEA-AEEA-AEEA-AEEA-εLys-εLys-C20 diacid])GGSK([AEEA-AEEA-AEEA-AEEA-AEEA-AEEA-εLys-εLys-C20 diacid])
notes: Double-acylated, C-terminally extended GLP-1 analogue made by SPPS; also called 28

The binders below were run against T1, human GLP-1 receptor (human, UniProt P43220 24-463) (assay: competitive binding (SPA): displacement of 125I-GLP-1(7-36)NH2 from BHK cell membranes with human GLP-1 receptor; high HSA (2.0% final)).
T1 construct: whole, on cells
Procedure: (§1) For the receptor binding assay in the presence of low HSA (0.005%) 50 μl of the assay buffer was added to each well of an assay plate. […] For the receptor binding assay in the presence of high HSA (2%) 50 μl of the 8% albumin stock was added to each well of an assay plate. […] Cell membrane aliquots were thawed and diluted to their working concentration. Fifty μl were added to each well in the assay plate. […] WGA SPA beads were suspended in assay buffer at 20 mg/ml. The suspension was diluted to 10 mg/ml in assay buffer just prior to addition to the assay plate. Fifty μl were added to each well in the assay plate. […] A 25 μl aliquot was reserved for measuring total counts/well. […] The assay plate was incubated for 2 h at 30° C. […] The assay plate was centrifuged for 10 min. […] The assay plate was read in a Packard TopCount NXT instrument.

First: B1
Second: B2
The IC50 of the first is 9.4-fold higher: 928 nM for the first, 99 nM for the second. The second is the more potent here.

First: B3
Second: B4
The IC50 of the first is 1.5-fold higher: 219 nM for the first, 142 nM for the second.

Going from B5 to B6, the IC50 falls from 270 nM to 177 nM (1.5-fold). The second is the more potent here.

B7 and B8 are within 1.5-fold of each other in IC50: 194 nM for the first, 201 nM for the second.

Compared with B9, B10 is 2.2-fold lower in IC50: 84 nM for the first, 38 nM for the second. The second is the more potent here.

First: B11
Second: B12
The IC50 of the first is 6.7-fold higher: 202 nM for the first, 30 nM for the second.

B13 showed an IC50 of 30 nM.

The binders below were run against T1, human GLP-1 receptor (assay: cell-based or functional assay).

Compared with B1, B2 is lower in “EC50 (pM), in vitro potency, CRE luciferase reporter gene assay in BHK cells expressing the human GLP-1 receptor” value (from here on “EC50 (pM), in vitro potency”): 20 pM for the first, 12 pM for the second.

First: B3
Second: B4
The “EC50 (pM), in vitro potency” value of the first is higher: 13 pM for the first, 6.2 pM for the second.

Compared with B5, B6 is higher in “EC50 (pM), in vitro potency” value: 8.4 pM for the first, 19 pM for the second.

First: B7
Second: B8
The “EC50 (pM), in vitro potency” value of the first is lower: 10 pM for the first, 22 pM for the second.

First: B9
Second: B10
The “EC50 (pM), in vitro potency” value of the first is lower: 7 pM for the first, 10 pM for the second.

Going from B11 to B12, the “EC50 (pM), in vitro potency” value falls from 13 pM to 4.4 pM.

B13 was tested, and the “EC50 (pM), in vitro potency” value was 3.4 pM.

These binders were tested against T1, human GLP-1 receptor (assay: competitive binding (SPA): displacement of 125I-GLP-1(7-36)NH2 from BHK cell membranes with human GLP-1 receptor; low HSA (max. 0.001% final)).
Procedure: as §1

B1 and B2 are within 1.5-fold of each other in IC50: 1.6 nM for the first, 1.8 nM for the second.

B3 and B4 are within 1.5-fold of each other in IC50: 2.3 nM for the first, 2.4 nM for the second.

Compared with B5, B6 is 3.2-fold lower in IC50: 4.1 nM for the first, 1.3 nM for the second.

Compared with B7, B8 is 1.7-fold higher in IC50: 0.82 nM for the first, 1.4 nM for the second. The first is the more potent here.

First: B9
Second: B10
The IC50 of the first is 3-fold higher: 0.67 nM for the first, 0.22 nM for the second.

Going from B11 to B12, the IC50 falls from 0.88 nM to 0.08 nM (11-fold).

Work on B13 yielded an IC50 of 0.05 nM.
